According to patent US12214052 (dated 2025):
Changes are numbered by the printed parent chain.

B1: 1210 Fab (Fab, V domains shown)
VH: QVQLVESGGGVVQPGRSLRLSCAASGFTFSNYGMHWVRQAPGKGLEWVAVIWYDGSKKYYADSVKGRFTISRDNSKNTLYLQMNSLRAEDTAVYYCARVRDSSDYYGDAFDIWGQGTMVTVSS
VL: DIQMTQSPSTLSASVGDRVTITCRASQSISSWLAWYQQKPGKAPKLLIYKASNLESGVPLRFSGSGSGTEFTLTISSLQPDDFATYYCQQYNNYWTFGQGTKVEIK
B2: antibody 1210 (IgG) (antibody, V domains shown)
VH: B1 VH
VL: B1 VL
B3: 1210_YY IgG (antibody, V domains shown)
VH: B1 VH with D104Y
VL: B1 VL with N92Y

Key:
CSP-NPNA5.5-8x-1210 Fab [1] = assay: ITC
CSP-NPNA5.5-12x-1210 Fab [2] = assay: ITC
CSP-NPNA5.5-8x-1210 Fab [3] = assay: ITC; remark: listed apart in the source
CSP-NPNA5.5-12x-1210 Fab [4] = assay: ITC; remark: listed apart in the source
CSP-NPNA5.5-10x-1210 Fab [5] = assay: ITC
CSP-NPNA5.5-10x-1210 Fab [6] = assay: ITC; remark: listed apart in the source
[7] = target: full length PfCSP (NF54 strain) (Plasmodium falciparum (NF54 strain), UniProt P19597 20-384); assay: BLI; avid
Sequence of full length PfCSP (NF54 strain) (P19597 20-384): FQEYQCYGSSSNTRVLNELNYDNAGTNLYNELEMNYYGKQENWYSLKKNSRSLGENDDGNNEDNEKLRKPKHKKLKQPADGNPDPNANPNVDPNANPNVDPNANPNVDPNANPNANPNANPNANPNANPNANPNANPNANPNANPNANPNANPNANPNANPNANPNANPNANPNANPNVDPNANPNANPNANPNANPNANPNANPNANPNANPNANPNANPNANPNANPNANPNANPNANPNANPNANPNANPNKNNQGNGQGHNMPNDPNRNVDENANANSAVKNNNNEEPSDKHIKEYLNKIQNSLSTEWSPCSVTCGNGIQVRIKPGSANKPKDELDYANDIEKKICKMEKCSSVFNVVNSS

Binder | Kd (CSP-NPNA5.5-8x-1210 Fab [1]) [nM] | Ka (CSP-NPNA5.5-12x-1210 Fab [2]) [M⁻¹] | Ka (CSP-NPNA5.5-8x-1210 Fab [3]) [M⁻¹] | Kd (CSP-NPNA5.5-12x-1210 Fab [4]) [nM] | Kd (CSP-NPNA5.5-10x-1210 Fab [5]) [nM] | Ka (CSP-NPNA5.5-10x-1210 Fab [6]) [M⁻¹] | Kd [7] [nM]
B1 | 333 | 5.73e+06 | 3e+06 | 174 | 456 | 2.19e+06 | –
B2 | – | – | – | – | – | – | < 0.001
B3 | – | – | – | – | – | – | 0.66
